# Laboratory results reported in article PMC7582164, “The soluble neurexin-1β ectodomain causes calcium influx and augments dendritic outgrowth and synaptic transmission” (Scientific Reports, 2020).
# No end group written: not given here.
# Assays:
# [1] = target: Recombinant neuroligin-1 (NL-1) (UniProt Q62765); test: SPR; Biacore 2000; NL-1 immobilised on a CM4 chip by amine coupling (~2800 RU); analyte NX-1β Fc chimera 0.05-0.8 µM or Neurexide 1.25-20 µM; 25 °C; HBS-P (10 mM HEPES pH 7.4, 150 mM NaCl, 0.005% P20) with 3 mM CaCl2; 30 µl/min; 1:1 Langmuir fit
# [2] = target: T1, Recombinant neuroligin-1 (NL-1) (UniProt Q62765 46-697); test: as above; conditions: both partners purified
# T1 construct: neuroligin-1, recombinant; source: bought: R&D Systems (cat# 4340-NL)
# T1 sequence (Q62765 46-697): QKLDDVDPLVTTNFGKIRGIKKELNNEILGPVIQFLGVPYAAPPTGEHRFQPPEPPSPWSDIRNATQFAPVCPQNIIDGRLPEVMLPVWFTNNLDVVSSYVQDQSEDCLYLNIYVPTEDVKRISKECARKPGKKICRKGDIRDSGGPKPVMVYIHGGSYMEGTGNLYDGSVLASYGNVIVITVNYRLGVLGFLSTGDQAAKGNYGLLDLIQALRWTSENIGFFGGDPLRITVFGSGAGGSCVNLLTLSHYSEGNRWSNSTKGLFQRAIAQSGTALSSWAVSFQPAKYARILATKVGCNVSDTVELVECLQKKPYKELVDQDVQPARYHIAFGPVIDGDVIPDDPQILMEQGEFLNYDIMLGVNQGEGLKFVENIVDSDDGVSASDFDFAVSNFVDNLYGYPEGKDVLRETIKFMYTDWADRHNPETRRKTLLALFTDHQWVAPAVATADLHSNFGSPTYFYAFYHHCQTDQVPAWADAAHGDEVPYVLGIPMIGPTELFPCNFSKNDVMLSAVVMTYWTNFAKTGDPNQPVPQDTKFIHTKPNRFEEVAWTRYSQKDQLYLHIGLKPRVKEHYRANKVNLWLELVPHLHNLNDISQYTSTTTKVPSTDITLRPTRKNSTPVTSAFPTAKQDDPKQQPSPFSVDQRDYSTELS
# Chain of Recombinant neuroligin-1 (NL-1) (UniProt Q62765) (Q62765 46-697): as above
Molecule,Kd [1],Kd [2]
Human neurexin-1β Fc-chimera (NX-1β ectodomain lacking splice site 4) (from UniProt P58400 51-396) (Fc fusion),32 nM,
"ARPSTRADRA (also: tetramer coupled to a lysine backbone, The peptide was made as a C-terminally amidated monomer, a dimer and a tetramer; also called Neurexin peptide; source: synthetic peptide)",,480 nM
